For one substance, Kd and stoichiometry N (tubulin dimers per FOR20) results are on record in paper PMC5583970.

The assay deals with His-FOR20 (UniProt Q96NB1). Description: pull-down; purified His-FOR20 (1 μM) and tubulin dimers (1–8 μM) on ice for 1 h, Ni-NTP beads 30 min, supernatant and pellet on Coomassie gel, band intensities fitted to n identical independent sites; apparent Kd.
Chain of UniProt Q96NB1 (Q96NB1 whole entry): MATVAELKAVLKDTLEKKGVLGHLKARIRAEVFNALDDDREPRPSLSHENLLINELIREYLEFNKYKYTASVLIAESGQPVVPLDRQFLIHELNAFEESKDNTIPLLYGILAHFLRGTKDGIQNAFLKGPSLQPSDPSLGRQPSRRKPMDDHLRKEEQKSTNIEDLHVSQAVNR

Turning to “free tubulin dimers (αβ-tubulin heterodimers) (from UniProt P02550 1-451; P02554 1-445) (complex)”, the Kd came to 3.5 µM and the stoichiometry N (tubulin dimers per FOR20) is 6.
